Experimental data: the supplement of paper PMC7877785
± gives the uncertainty stated by the source.

Test: self-splicing fitness, log relative to wild type (ln ratio); higher = more splicing; Tetrahymena group I intron in knt gene, E. coli kanamycin selection, DiMSum; sequences stand for … in CUCUCU…GGAGGGAAAAGUUAUCAGGCAUGCACCUGGUAGCUAGUCUUUAAACCAAUAGAUUGCAUCGGUUUAAAAGGCAAGACCGUCAAAUUGCGGGAAAGGGGUCAACAGCCGUUCAGUACCAAGUCUCAGGGGAAACUUUGAGAUGGCCUUGCAAAGGGUAUGGUAAUAAGCUGACGGACAUGGUCCUAACCACGCAGCCAAGUCCUAAGUCAACAGAUCUUCUGUUGAUAUGGAUGCAGUUCACAGACUAAAUGUCGGUCGGGGAAGAUGUAUUCUUCUCAUAAGAUAUAGUCGGACCUCUCCUUAAUGGGAGCUAGCGGAUGAAGUGAUGCAACACUGGAGCCGCUGGGAACUAAUUUGUAUGCGAAAGUAUAUUGAUUAGUUUUGGAGUACUCGUGGUCG
Outline: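 DiMSum derived fitness as the error-weighted combination of fold changes across replicates, kanamycin versus no kanamycin, normalised to wild type. E. coli BL21(DE3) held the library, which randomised all eight P1ex-region intron nucleotides within the knt kanamycin-resistance gene on pET-22b(+). Six replicate transformations grew overnight at 37°C or 30°C on LB agar with or without 25 μg/mL kanamycin, also containing 100 μg/mL carbenicillin, 50 μM IPTG and 0.2% rhamnose, and pooled colonies were amplicon-sequenced on an Illumina HiSeq 2500.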

Row | Sequence | self-splicing fitness (ln) (30 °C) | self-splicing fitness (ln) (37 °C)
1 | CGUAAGCAAUAUUACGCGCG | -2.79 ± 0.16 | -1.71 ± 0.23
2 | CGUAAGCAAUAUUACGCGGA | -3.23 ± 0.19 | -1.84 ± 0.16
3 | CGUAAGCAAUAUUACGCUUG | -3.54 ± 0.18 | -0.367 ± 0.14
4 | CGUAAGCAAUAUUACGGACC | -0.744 ± 0.11 | -0.0128 ± 0.14
5 | CGUAAGCAAUAUUACGGAGG | -2.16 ± 0.14 | -1.57 ± 0.17
6 | CGUAAGCAAUAUUACGGCAA | -2.37 ± 0.25 | -1.68 ± 0.28
7 | CGUAAGCAAUAUUACGGGAC | -2.9 ± 0.29 | -2.47 ± 0.41
8 | CGUAAGCAAUAUUACGGGCG | -2.87 ± 0.22 | -1.12 ± 0.14
9 | CGUAAGCAAUAUUACGGGGC | -3.43 ± 0.26 | -2.35 ± 0.23
10 | CGUAAGCAAUAUUACGGGGU | -3.79 ± 0.18 | -3.36 ± 0.25
11 | CGUAAGCAAUAUUACGGUUU | -3.8 ± 0.2 | -2.71 ± 0.17
12 | CGUAAGCAAUAUUACGUACG | -3.57 ± 0.25 | -1.59 ± 0.23
13 | CGUAAGCAAUAUUACGUAGA | -4.43 ± 0.3 | -3.25 ± 0.29
14 | CGUAAGCAAUAUUACGUCCA | -2.61 ± 0.17 | -1.25 ± 0.17
15 | CGUAAGCAAUAUUACGUCUU | -3.7 ± 0.22 | -1.37 ± 0.14
16 | CGUAAGCAAUAUUACGUGAC | -3.04 ± 0.15 | -2.33 ± 0.18
17 | CGUAAGCAAUAUUACGUUAG | -1.34 ± 0.072 | -0.964 ± 0.081
18 | CGUAAGCAAUAUUACGUUUA | -1.69 ± 0.18 | -1.41 ± 0.18
19 | CGUCAGCAAUAUUACGAACG | -2.55 ± 0.17 | -1.32 ± 0.18
20 | CGUCAGCAAUAUUACGACAA | -0.159 ± 0.14 | 0.0303 ± 0.14
21 | CGUCAGCAAUAUUACGACUG | -0.935 ± 0.11 | 0.699 ± 0.13
22 | CGUCAGCAAUAUUACGAGAC | -2.95 ± 0.38 | -1.9 ± 0.32
23 | CGUCAGCAAUAUUACGAUAG | -0.505 ± 0.054 | -0.11 ± 0.074
24 | CGUCAGCAAUAUUACGAUCG | -1.74 ± 0.093 | -1.61 ± 0.11
25 | CGUCAGCAAUAUUACGAUGU | -1.73 ± 0.11 | -1.53 ± 0.098

Row | Sequence | self-splicing fitness (ln) (30 °C) | self-splicing fitness (ln) (37 °C)
26 | CGUCAGCAAUAUUACGCACC | -1.51 ± 0.1 | -0.192 ± 0.13
27 | CGUCAGCAAUAUUACGCAUC | -2.47 ± 0.4 | -2.89 ± 0.4
28 | CGUCAGCAAUAUUACGCGCC | -1.58 ± 0.16 | -0.529 ± 0.29
29 | CGUCAGCAAUAUUACGCUCC | -1.3 ± 0.15 | -0.786 ± 0.22
30 | CGUCAGCAAUAUUACGGAGU | -3.45 ± 0.17 | -2.55 ± 0.18
31 | CGUCAGCAAUAUUACGGCAC | -1.8 ± 0.12 | -0.799 ± 0.14
32 | CGUCAGCAAUAUUACGGCCA | -0.937 ± 0.083 | 0.106 ± 0.097
33 | CGUCAGCAAUAUUACGGCCU | -0.913 ± 0.17 | -1.79 ± 0.29
34 | CGUCAGCAAUAUUACGGCGU | -4.74 ± 0.34 | -0.685 ± 0.19
35 | CGUCAGCAAUAUUACGGCUA | -0.938 ± 0.11 | -0.751 ± 0.11
36 | CGUCAGCAAUAUUACGGGAU | -4.7 ± 0.39 | -2.66 ± 0.2
37 | CGUCAGCAAUAUUACGGGCU | -1.31 ± 0.078 | -0.668 ± 0.082
38 | CGUCAGCAAUAUUACGGGGU | -3.29 ± 0.11 | -2.33 ± 0.14
39 | CGUCAGCAAUAUUACGGGUC | -4.23 ± 0.39 | -2.73 ± 0.23
40 | CGUCAGCAAUAUUACGGUGG | -1.26 ± 0.071 | -0.629 ± 0.096
41 | CGUCAGCAAUAUUACGUAGG | -0.704 ± 0.055 | 0.23 ± 0.086
42 | CGUCAGCAAUAUUACGUCAA | -2.64 ± 0.11 | -1.61 ± 0.1
43 | CGUCAGCAAUAUUACGUCAG | -0.465 ± 0.069 | 0.175 ± 0.083
44 | CGUCAGCAAUAUUACGUCGG | -0.413 ± 0.042 | 0.115 ± 0.06
45 | CGUCAGCAAUAUUACGUCGU | -3 ± 0.09 | -1.99 ± 0.11
46 | CGUCAGCAAUAUUACGUGCG | -4.56 ± 0.31 | -2.21 ± 0.19
47 | CGUCAGCAAUAUUACGUUCC | -2.43 ± 0.16 | -1.18 ± 0.23
48 | CGUCAGCAAUAUUACGUUUU | -3.25 ± 0.098 | -1.55 ± 0.094
49 | CGUGAGCAAUAUUACGAUAU | -2.77 ± 0.14 | -2.71 ± 0.23
50 | CGUGAGCAAUAUUACGAUCG | -3.02 ± 0.27 | 0.475 ± 0.25

Row | Sequence | self-splicing fitness (ln) (30 °C) | self-splicing fitness (ln) (37 °C)
51 | CGUGAGCAAUAUUACGAUUU |  | -2.24 ± 0.29
52 | CGUGAGCAAUAUUACGCAAU | -2.52 ± 0.14 | -2.75 ± 0.25
53 | CGUGAGCAAUAUUACGCAUG | -0.06 ± 0.18 | -1.13 ± 0.27
54 | CGUGAGCAAUAUUACGCUAU | -2.39 ± 0.17 | -2.49 ± 0.23
55 | CGUGAGCAAUAUUACGCUCU | -1.76 ± 0.36 | 
56 | CGUGAGCAAUAUUACGCUUA |  | -2.18 ± 0.35
57 | CGUGAGCAAUAUUACGGAAU |  | -2.84 ± 0.38
58 | CGUGAGCAAUAUUACGGACA | -1.29 ± 0.16 | -0.944 ± 0.19
59 | CGUGAGCAAUAUUACGGAGA | -3.88 ± 0.33 | -1.57 ± 0.25
60 | CGUGAGCAAUAUUACGGCCA | -2.35 ± 0.49 | 
61 | CGUGAGCAAUAUUACGGCUG | -0.246 ± 0.073 | 0.0364 ± 0.094
62 | CGUGAGCAAUAUUACGGCUU | -3.31 ± 0.18 | -3.81 ± 0.33
63 | CGUGAGCAAUAUUACGGGAC |  | -1.88 ± 0.41
64 | CGUGAGCAAUAUUACGGGCC | -1.9 ± 0.32 | 
65 | CGUGAGCAAUAUUACGGUAA |  | -2.41 ± 0.25
66 | CGUGAGCAAUAUUACGGUCU | -2.56 ± 0.17 | -2.16 ± 0.42
67 | CGUGAGCAAUAUUACGUAAA |  | -2.03 ± 0.33
68 | CGUGAGCAAUAUUACGUACG |  | -0.531 ± 0.23
69 | CGUGAGCAAUAUUACGUACU | -1.7 ± 0.12 | -0.396 ± 0.14
70 | CGUGAGCAAUAUUACGUGAG | -0.77 ± 0.072 | -1.61 ± 0.097
71 | CGUGAGCAAUAUUACGUGGC | -3.73 ± 0.37 | -3.16 ± 0.4
72 | CGUGAGCAAUAUUACGUGGU | -3.02 ± 0.17 | -2.42 ± 0.22
73 | CGUGAGCAAUAUUACGUGUU | -3.22 ± 0.3 | -2.86 ± 0.32
74 | CGUGAGCAAUAUUACGUUAG | -2.02 ± 0.081 | -1 ± 0.094
75 | CGUUAGCAAUAUUACGAAUC | -2.95 ± 0.28 | -2.42 ± 0.3

Row | Sequence | self-splicing fitness (ln) (30 °C) | self-splicing fitness (ln) (37 °C)
76 | CGUUAGCAAUAUUACGACGG | 0.168 ± 0.13 | -0.377 ± 0.12
77 | CGUUAGCAAUAUUACGACUC | -0.808 ± 0.25 | 0.024 ± 0.23
78 | CGUUAGCAAUAUUACGAGAA | -1.93 ± 0.49 | -1.45 ± 0.46
79 | CGUUAGCAAUAUUACGAUAA | -2.9 ± 0.26 | -1.52 ± 0.22
80 | CGUUAGCAAUAUUACGCAGA | -3.21 ± 0.41 | -2.31 ± 0.23
81 | CGUUAGCAAUAUUACGCAUU | -4.27 ± 0.25 | -1.29 ± 0.12
82 | CGUUAGCAAUAUUACGCCGG | -0.8 ± 0.11 | -0.767 ± 0.11
83 | CGUUAGCAAUAUUACGCGUA |  | -0.996 ± 0.25
84 | CGUUAGCAAUAUUACGCGUU | -4.08 ± 0.13 | -2.39 ± 0.12
85 | CGUUAGCAAUAUUACGCUAC | -1.48 ± 0.24 | 
86 | CGUUAGCAAUAUUACGCUAU | -2.29 ± 0.28 | 
87 | CGUUAGCAAUAUUACGGGGC | -2.57 ± 0.15 | -3.12 ± 0.28
88 | CGUUAGCAAUAUUACGUCAA |  | -1.41 ± 0.38
89 | CGUUAGCAAUAUUACGUCCC |  | -0.641 ± 0.36
90 | CGUUAGCAAUAUUACGUCGA | -2.71 ± 0.19 | -1.16 ± 0.2
91 | CGUUAGCAAUAUUACGUUCU | -1.39 ± 0.15 | -1.25 ± 0.14
92 | CGUUAGCAAUAUUACGUUGU | -4.22 ± 0.29 | -2.78 ± 0.22
93 | CGUUAGCAAUAUUACGUUUC | -3.28 ± 0.2 | -2.19 ± 0.21
94 | CGUUAGCAAUAUUACGUUUG | -1.01 ± 0.08 | -0.558 ± 0.1
95 | CGUUAGCAAUAUUACGUUUU | -4.77 ± 0.27 | -2.99 ± 0.17
96 | CUAAAGCAAUAUUACGAACA | -2.48 ± 0.12 | -2.03 ± 0.2
97 | CUAAAGCAAUAUUACGACAC |  | -1.88 ± 0.47
98 | CUAAAGCAAUAUUACGACGU | -3.33 ± 0.28 | -0.435 ± 0.19
99 | CUAAAGCAAUAUUACGAGAC | -3.33 ± 0.18 | -0.499 ± 0.16
100 | CUAAAGCAAUAUUACGAUCU | -4.75 ± 0.23 | -2.5 ± 0.18
